Target: Bbox1 domain of MID1
Test: NMR titration; 1H-15N HSQC at 21°C, aqueous solution; 0.15 mM unlabeled alpha45 added to 0.3 mM 15N-labeled Bbox1 (Bbox1 to alpha45 1:0.5)

“alpha45 (45-amino acid region of the C-terminus of alpha4, residues Glu236 to Leu280) (from UniProt P78318 236-280) (domain or fragment)” gave a percent of Bbox1 bound to alpha45 (at 1:0.5) of 40 to 50% and a stoichiometry N of 1.
